Experimental data: paper PMC6510891, “Functional duplication of Rap1 in methylotrophic yeasts”

Biological target: T1, HpRap1B (Hansenula polymorpha DL-1, UniProt W1QDN2 1-576)
T1 sequence: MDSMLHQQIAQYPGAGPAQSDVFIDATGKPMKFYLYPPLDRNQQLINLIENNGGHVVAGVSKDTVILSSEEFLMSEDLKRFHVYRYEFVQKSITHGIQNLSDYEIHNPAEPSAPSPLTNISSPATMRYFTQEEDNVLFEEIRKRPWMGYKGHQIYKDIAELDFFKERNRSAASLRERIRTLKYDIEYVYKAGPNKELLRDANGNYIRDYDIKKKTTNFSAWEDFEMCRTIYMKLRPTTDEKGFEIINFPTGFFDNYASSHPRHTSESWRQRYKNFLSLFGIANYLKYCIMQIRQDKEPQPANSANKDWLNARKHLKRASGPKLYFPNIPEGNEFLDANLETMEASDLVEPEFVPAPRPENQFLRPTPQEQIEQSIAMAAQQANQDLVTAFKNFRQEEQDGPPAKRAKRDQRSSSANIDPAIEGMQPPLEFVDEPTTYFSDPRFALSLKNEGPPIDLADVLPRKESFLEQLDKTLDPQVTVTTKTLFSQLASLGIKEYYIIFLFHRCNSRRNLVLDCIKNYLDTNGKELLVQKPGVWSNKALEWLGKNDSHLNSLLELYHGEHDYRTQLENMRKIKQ
Test: SPR; kinetic fit; equilibrium Kd 13±3; SPR: 10 mM HEPES-NaOH pH 7.5, 150 mM NaCl, 0.5 mM DTT, 0.05% Tween 20, 1 mg/ml BSA, 0.02 mg/ml salmon sperm DNA; competition 2 nM protein with 20 or 200 nM competitor. EMSA: 20 mM HEPES-NaOH pH 7.5, 50 mM NaCl, 0.2 mg/ml BSA, 5% glycerol, 0.1 mg/ml salmon sperm DNA, room temperature
Conditions: protein: recombinant; 3' overhang 20 nt on strand 2

B1: HANPO4 (SPR) (dsDNA)
DNA 1: GGGTGGCGGGGTGGCGGGGTGGCGGGGTGGCG
DNA 2: CGCCACCCCGCCACCCCGCCACCCCGCCACCCCCTCTACGTCCTCCTGCTCC
  Kd: 12 ± 3 nM
